Consider one molecule from US12637513B2, “Method of treating cancer by administering an inhibitor of erythropoietin receptor activity comprising either erythropoietin receptor or erythropoietin protein” (ImmunEdge, Inc., priority 2022, dated 2026).

The target in assay [1] is T1, soluble hetero-EPOR (EPOR-CD131-Fc) (Homo sapiens, UniProt P19235+P32927).
T1 construct: Chimeric Fc fusion proteins of the extracellular domains of human EPOR and human CD131; purchased Sino Biological CT010-H02H
T1 sequence (P19235 25-250 limits assumed): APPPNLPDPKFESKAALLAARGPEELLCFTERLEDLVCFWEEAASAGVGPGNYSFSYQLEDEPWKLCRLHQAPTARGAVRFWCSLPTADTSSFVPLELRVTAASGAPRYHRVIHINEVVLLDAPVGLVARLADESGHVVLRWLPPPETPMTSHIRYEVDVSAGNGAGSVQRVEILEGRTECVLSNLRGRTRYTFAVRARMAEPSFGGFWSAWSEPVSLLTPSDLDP
T1 sequence (P32927 17-443 limits assumed): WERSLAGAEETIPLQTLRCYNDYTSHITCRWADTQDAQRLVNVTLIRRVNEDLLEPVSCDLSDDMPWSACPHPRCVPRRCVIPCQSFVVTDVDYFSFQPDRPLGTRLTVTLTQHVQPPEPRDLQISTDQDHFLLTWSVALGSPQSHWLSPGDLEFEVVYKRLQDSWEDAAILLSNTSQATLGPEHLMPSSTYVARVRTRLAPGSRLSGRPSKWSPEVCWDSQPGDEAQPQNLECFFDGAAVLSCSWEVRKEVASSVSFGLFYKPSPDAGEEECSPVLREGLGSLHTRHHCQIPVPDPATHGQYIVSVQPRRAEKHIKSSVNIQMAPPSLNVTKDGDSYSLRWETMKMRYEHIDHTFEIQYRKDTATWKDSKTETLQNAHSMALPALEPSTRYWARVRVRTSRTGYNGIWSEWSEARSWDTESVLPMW
Nature of the assay: Bio-layer interferometry (Octet) binding of hybridoma antibodies to EPOR-CD131-Fc. As to conditions: hybridoma supernatants; 30 nM soluble receptor. The text has this:
The B cells from ATX-GK mice were fused with mouse myeloma cells to generate hybridoma. The hybridoma cells were screened twice. In the first screening, 293 cells expressing human EPOR, human CD131, or both were used as the primary screen. 87 hybridoma antibodies have been isolated by positive staining on 293T cells expressing human EPOR (hEPOR), human CD131 (hCD131), or both, with the hybridoma supernatants (Table 11 and FIG. 17). Expression of EPOR and CD131 was confirmed by flow cytometry with Phycoerythrin (PE)-labeled anti-EPOR (R&D Systems, Cat #FAB307P) and Alexa Fluor® 647 (AF647)-labeled anti-CD131 (BD Biosciences, Cat #564191), respectively (FIG. 28B). All hybridoma clones were purified and sequenced. Binding kinetics with soluble hetero-EPOR (EPOR-CD131-Fc), soluble EPO receptor subunit of hetero-EPOR (EPOR-Fc), and soluble CD131 subunit of hetero-EPOR (CD131-Fc) were measured using bio-layer interferometry (Octet®) by capturing the hybridoma antibodies in the supernatants on biosensors coated with anti-mouse Fc first and dipping the biosensors into the solutions containing 30 nM of the soluble receptor Fc fusion proteins. The supernatants were also used to block the interaction between EPO and EPOR. The soluble EPOR-CD131-Fc was first captured on biosensors coated with anti-human Fc and then dipped into 10 nM of EPO with or without the hybridoma supernatants. […]
For orientation: Biolayer interferometry detects binding as a change in optical thickness at a sensor tip.

The next assay addresses T2, 293T/CD131 cells (Homo sapiens, UniProt P32927).
T2 construct: expressed in transfected cells; host or cells: 293T cells, lentiviral transduction
T2 sequence (P32927 17-897): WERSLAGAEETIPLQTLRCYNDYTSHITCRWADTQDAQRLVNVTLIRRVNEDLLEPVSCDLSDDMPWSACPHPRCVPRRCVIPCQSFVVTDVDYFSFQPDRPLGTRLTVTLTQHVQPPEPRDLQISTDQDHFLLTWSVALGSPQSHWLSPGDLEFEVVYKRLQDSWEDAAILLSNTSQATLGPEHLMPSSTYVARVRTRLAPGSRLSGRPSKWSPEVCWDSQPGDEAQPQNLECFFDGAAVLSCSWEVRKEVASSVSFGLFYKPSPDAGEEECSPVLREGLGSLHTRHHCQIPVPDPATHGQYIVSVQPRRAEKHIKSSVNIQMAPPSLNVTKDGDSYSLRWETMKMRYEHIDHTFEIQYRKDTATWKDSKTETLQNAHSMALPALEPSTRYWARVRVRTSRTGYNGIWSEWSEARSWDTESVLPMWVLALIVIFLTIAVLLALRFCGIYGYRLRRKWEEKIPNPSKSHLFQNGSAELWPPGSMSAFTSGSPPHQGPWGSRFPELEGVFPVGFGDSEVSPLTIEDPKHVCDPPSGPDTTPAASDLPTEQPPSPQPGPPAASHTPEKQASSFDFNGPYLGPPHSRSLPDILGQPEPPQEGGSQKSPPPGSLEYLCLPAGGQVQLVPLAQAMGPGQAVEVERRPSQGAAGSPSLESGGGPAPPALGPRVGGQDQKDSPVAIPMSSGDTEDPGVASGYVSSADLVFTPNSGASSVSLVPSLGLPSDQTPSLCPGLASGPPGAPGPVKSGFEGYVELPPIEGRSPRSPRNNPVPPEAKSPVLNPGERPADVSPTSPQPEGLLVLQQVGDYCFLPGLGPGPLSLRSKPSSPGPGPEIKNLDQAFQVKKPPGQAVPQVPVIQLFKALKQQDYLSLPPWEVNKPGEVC
Nature of the assay: Staining of 293T/CD131 cells with purified antibodies. The class given is binding. The procedure:
The purified antibodies were used to stain the human leukemia UT-7 cells, 293T/EPOR, 293T/CD131, and 293T/EPOR/CD131 cells to confirm antigen binding. The UT-7 cells were maintained in Roswell Park Memorial Institute (RPMI) with 10% Fetal Bovine Serum (FBS) and 5 ng/ml of recombinant human GM-CSF (Peprotech®, Cat #300-03). The 293T cells expressing hEPOR, hCD131, or both were maintained in Dulbecco's Modified Eagle Medium (DMEM) with 10% FBS. 1×10^6 cells/ml were incubated with purified hybridoma clones M2 and M41 at a 3-fold dilution series starting from 20 μg/ml for 30 minutes at 4° C. After washing, the cells were incubated with PE labeled secondary antibody and subjected to flowcytometric analysis. […] The binding profiles of the 293T/EPOR/CD131 cells are similar except the peak MFIs around 1500, half of that of the 293T/EPOR cells (FIG. 29B).

Assay [2] deals with T3, EPO/EPOR interaction (EPOR-CD131-Fc and EPO) (Homo sapiens, UniProt P19235+P32927).
T3 construct: Chimeric Fc fusion proteins of the extracellular domains of human EPOR and human CD131; purchased Sino Biological CT010-H02H
T3 sequence (P19235 25-250 limits assumed): T1 sequence (P19235 25-250 limits assumed)
T3 sequence (P32927 17-443 limits assumed): T1 sequence (P32927 17-443 limits assumed)
Nature of the assay: Octet blocking of the EPO/EPOR interaction by hybridoma supernatants. The class given is binding. As to conditions: EPO 10 nM.

B1: EPORab - M2: hybridoma antibody clone, VH/VK in Table 10 (antibody, V domains shown)
VH: QVQLVESGGGLVKPGGSLRLSCAASGFTFSDSYMSWIRQAPGKGLEWVSYISNSGSYMYYADSVKGRFTISRDNAKNSLYLQMNNLRAEDTAVYYCARDKLGIGDYWGQGTLVTVSS
VL: DIQMTQSPSSLSASVGDRVTITCRASQGIRNDLGWFQQKPGKAPKRLIYAASRLQSGVPSRFSGSGSGTEFTLTISSLQPEDFATYCCLQHHTYPPTFGQGTKVEIK
For B1, the “binding to EPOR-CD131-Fc” value in assay [1] was “potent binding”. In addition, the “staining of 293T/CD131 cells” value in the assay with 293T/CD131 cells is “did not stain”. Besides, the “blocking of the EPO/EPOR interaction” value in assay [2] is “nearly complete blocking”.
